Residue numbers refer to the chain shown, from its start. Names may count otherwise. Each block holds one molecule with its values, some of them ahead of it.
How the values were obtained:
[1] = target: wild-type yeast microtubules (polymerized wild-type yeast αβ-tubulin) (S. cerevisiae) (UniProt P09733); assay: TIRF microscopy, fluorescence intensity of the Stu2-eGFP spot on the growing microtubule end; end intensity dynamic assay; 5-300 nM Stu2-eGFP (titration, hyperbolic fit; apparent) or 200 nM variant; 0.8 μM wild-type yeast tubulin; 30°C
[2] = target: T1, plus-end blocked yeast αβ-tubulin (β:T175R,V179R) (S. cerevisiae, UniProt P09733 1-447; P02557 1-457, T175R | V179R); assay: AUC; sedimentation velocity, 50,000 rpm, 20°C, absorbance at 229 nm; RB100 (25 mM Tris pH 7.5, 100 mM NaCl, 1 mM MgCl2, 1 mM EGTA) with 20 µM GTP; 0.3 µM tubulin with 0.1-3 µM TOG1-tail; isotherms fitted with a 1:1 effective-particle model; conditions: both partners purified
T1 construct: Tub1p (yeast α-tubulin), S. cerevisiae; Tub2p (yeast β-tubulin), S. cerevisiae; also called LR1

[3] = target: T2, side-blocked yeast αβ-tubulin (β:F281A) (S. cerevisiae, UniProt P09733 1-447; P02557 1-457, F281A); assay: SEC; gel filtration on Shodex KW-803 in BRB80 (80 mM PIPES pH 6.9, 1 mM MgCl2, 1 mM EGTA) with 50 μM GTP; 1 μM TOG1-tail and 1 μM tubulin, alone or mixed, equilibrated on ice for 20 min; conditions: both partners purified
T2 construct: Tub1p (yeast α-tubulin), S. cerevisiae; Tub2p (yeast β-tubulin), S. cerevisiae; also called Tub2:F281A

[4] = target: T3, wild-type yeast αβ-tubulin (unpolymerized) (S. cerevisiae, UniProt P09733 1-447; P02557 1-457); assay: as above; conditions: both partners purified
T3 construct: Tub1p (yeast α-tubulin), S. cerevisiae; Tub2p (yeast β-tubulin), S. cerevisiae; also called WT tubulin; unpolymerized tubulin

[5] = target: T4, lateral-interface mutant yeast αβ-tubulin (α:H284A) (S. cerevisiae, UniProt P09733 1-447; P02557 1-457, H284A); assay: as above; conditions: both partners purified
T4 construct: Tub1p (yeast α-tubulin), S. cerevisiae; Tub2p (yeast β-tubulin), S. cerevisiae; also called Tub1-H284A; Tub1:H284A

[6] = target: T5, wild-type yeast microtubules (polymerized wild-type yeast αβ-tubulin) (S. cerevisiae, UniProt P09733 1-447; P02557 1-457); assay: TIRF microscopy, fluorescence intensity of the Stu2-eGFP spot on the growing microtubule end; end intensity dynamic assay; 5-300 nM Stu2-eGFP (titration, hyperbolic fit; apparent) or 200 nM variant; 0.8 μM wild-type yeast tubulin; 30°C; conditions: both partners purified
T5 construct: Tub1p (yeast α-tubulin), S. cerevisiae; Tub2p (yeast β-tubulin), S. cerevisiae; Polymer of m2; also called microtubule lattice; microtubule end

[7] = target: T6, β:T238A yeast microtubules (polymerized Tub2:T238A αβ-tubulin) (S. cerevisiae, UniProt P09733 1-447; P02557 1-457, T238A); assay: TIRF microscopy of Stu2-eGFP on dynamic microtubules (kymographs); axoneme-seeded unlabeled dynamic yeast microtubules on the cover slip; Stu2-eGFP variant (100-200 nM) with 0.5-0.8 μM unpolymerized yeast tubulin in imaging buffer (1X PEM, 50 µM GTP, 0.1 mg/mL BSA, antifade); 30°C; conditions: both partners purified
T6 construct: Tub1p (yeast α-tubulin), S. cerevisiae; Tub2p (yeast β-tubulin), S. cerevisiae; also called β:T238A microtubules; mutant microtubules

[8] = target: the molecule itself; assay: single-molecule photobleaching (TIRF); fluorescence intensity trace of stationary Stu2-eGFP; steps of photobleaching counted
[9] = target: T7, minus-end blocked yeast αβ-tubulin (α:T350E) (S. cerevisiae, UniProt P09733 1-447; P02557 1-457, T350E); assay: TIRF microscopy of Stu2-eGFP on stabilized microtubules; GTPγS-stabilized wild-type yeast microtubules held on the cover slip by His-Tag antibody; 100 nM Stu2-eGFP flowed in without or with 1 μM unpolymerized tubulin (wild type or mutant; mixed on ice for 10 min); imaging buffer; 30°C; conditions: both partners purified
T7 construct: Tub1p (yeast α-tubulin), S. cerevisiae; Tub2p (yeast β-tubulin), S. cerevisiae; also called T350E α-tubulin

[10] = target: T1, plus-end blocked yeast αβ-tubulin …; assay: as above; conditions: both partners purified
[11] = target: T5, wild-type yeast microtubules …; assay: single-molecule TIRF microscopy, residence time on the growing microtubule end; 5 nM Stu2-eGFP variant with 1-1.5 µM unlabeled wild-type yeast tubulin; 100 ms streaming; one-phase exponential fit of the dwell times; 30°C; conditions: both partners purified
[12] = target: T5, wild-type yeast microtubules …; assay: TIRF microscopy of Stu2-eGFP on dynamic microtubules (kymographs); axoneme-seeded unlabeled dynamic yeast microtubules on the cover slip; Stu2-eGFP variant (100-200 nM) with 0.5-0.8 μM unpolymerized yeast tubulin in imaging buffer (1X PEM, 50 µM GTP, 0.1 mg/mL BSA, antifade); 30°C; conditions: both partners purified

B2: wild-type Stu2-eGFP (Stu2 residues 1–888, full-length; dimer) (natural protein, S. cerevisiae, UniProt P46675 1-888, looked up)
chain: MSGEEEVDYTTLPLEERLTYKLWKARLEAYKELNQLFRNSVGDISRDDNIQIYWRDPTLFAQYITDSNVVAQEQAIVALNSLIDAFASSSLKNAHNITLISTWTPLLVEKGLTSSRATTKTQSMSCILSLCGLDTSITQSVELVIPFFEKKLPKLIAAAANCVYELMAAFGLTNVNVQTFLPELLKHVPQLAGHGDRNVRSQTMNLIVEIYKVTGNNSDLLEEILFKKLKPIQVKDLHKLFAKVGDEPSSSKMLFEWEKRELEKKRSQEEEARKRKSILSNDEGEYQIDKDGDTLMGMETDMPPSKQQSGVQIDTFSMLPEETILDKLPKDFQERITSSKWKDRVEALEEFWDSVLSQTKKLKSTSQNYSNLLGIYGHIIQKDANIQAVALAAQSVELICDKLKTPGFSKDYVSLVFTPLLDRTKEKKPSVIEAIRKALLTICKYYDPLASSGRNEDMLKDILEHMKHKTPQIRMECTQLFNASMKEEKDGYSTLQRYLKDEVVPIVIQIVNDTQPAIRTIGFESFAILIKIFGMNTFVKTLEHLDNLKRKKIEETVKTLPNFSIASGSTHSTIETNKQTGPMENKFLLKKSSVLPSKRVASSPLRNDNKSKVNPIGSVASASKPSMVAANNKSRVLLTSKSLATPKNVVANSTDKNEKLIEEYKYRLQKLQNDEMIWTKERQSLLEKMNNTENYKIEMIKENEMLREQLKEAQSKLNEKNIQLRSKEIDVNKLSDRVLSLENELRNMEIELDRNKKRNDTNLQSMGTISSYSIPSSTVSSNYGVKSLSSALPFKEEEDVRRKEDVNYERRSSESIGDLPHRVNSLNIRPYRKNGTGVSSVSDDLDIDFNDSFASEESYKRAAAVTSTLKARIEKMKAKSRREGTTRT
notes: Stu2 (Stu2p), S. cerevisiae, residues 1-888; also called Stu2p; WT; source: E. coli Arctic Express, purified (His60 Superflow, Strep-Tactin); not shown: eGFP, C-terminal, kept
- EC50 [6]: 19 nM
- binding result [7]: binds
- stoichiometry N [8]: 2
- binding result [9]: binds
- binding result [10]: binds
- characteristic residence time on the growing microtubule end [11]: 2.2 s

B4: Stu2(TOG1-TOG2*)-eGFP (R519A) (natural protein, S. cerevisiae, UniProt P46675 1-888, looked up)
chain: B2 chain with R519A
notes: Stu2, S. cerevisiae, fully dimeric (888) background; also called TOG2* (R519A); source: E. coli Arctic Express, purified (His60 Superflow, Strep-Tactin); not shown: eGFP, C-terminal, kept
- relative amount of polymerase on the microtubule end (wild type = one) [6]: 0.5 relative to wild type
- characteristic residence time on the growing microtubule end [11]: 4 s

B5: Stu2(TOG1*-TOG2)-eGFP (R200A) (natural protein, S. cerevisiae, UniProt P46675 1-888, looked up)
chain: B2 chain with R200A
notes: Stu2, S. cerevisiae, fully dimeric (888) background; also called TOG1* (R200A); source: E. coli Arctic Express, purified (His60 Superflow, Strep-Tactin); not shown: eGFP, C-terminal, kept
- characteristic residence time on the growing microtubule end [11]: 1.7 s

The next lines start with the values.

- relative amount of polymerase on the microtubule end (wild type = one) (relative to wild type) [1]: 1
Molecule: Stu2(TOG2-TOG2)-eGFP (from UniProt P46675 1-888)

- binding result [2]: binds
- binding result [3]: binds
- binding result [4]: binds
- binding result [5]: binds
B1: Stu2 TOG1 domain ('TOG1-tail', 1–317) (domain or fragment, S. cerevisiae, UniProt P46675 1-317, looked up)
chain: MSGEEEVDYTTLPLEERLTYKLWKARLEAYKELNQLFRNSVGDISRDDNIQIYWRDPTLFAQYITDSNVVAQEQAIVALNSLIDAFASSSLKNAHNITLISTWTPLLVEKGLTSSRATTKTQSMSCILSLCGLDTSITQSVELVIPFFEKKLPKLIAAAANCVYELMAAFGLTNVNVQTFLPELLKHVPQLAGHGDRNVRSQTMNLIVEIYKVTGNNSDLLEEILFKKLKPIQVKDLHKLFAKVGDEPSSSKMLFEWEKRELEKKRSQEEEARKRKSILSNDEGEYQIDKDGDTLMGMETDMPPSKQQSGVQIDTFS
notes: Stu2 (Stu2p), S. cerevisiae, TOG1 domain with tail, residues 1-317; source: expression and purification previously described (Ayaz et al., 2012, 2014)

- binding result [12]: binds
B3: 'doubly dead' Stu2(TOG1*-TOG2*)-eGFP (natural protein, S. cerevisiae, UniProt P46675 1-888, looked up)
chain: B2 chain with R200A, R519A
notes: Stu2, S. cerevisiae, fully dimeric (888) background; also called double dead Stu2; source: E. coli Arctic Express, purified (His60 Superflow, Strep-Tactin); not shown: eGFP, C-terminal, kept

- relative amount of polymerase on the microtubule end (wild type = one) [6]: 0.5 relative to wild type
- characteristic residence time on the growing microtubule end [11]: 3.9 s
B6: Stu2(TOG2-TOG2*)-eGFP (other)
chain: MSGEEEVDYTTEETILDKLPKDFQERITSSKWKDRVEALEEFWDSVLSQTKKLKSTSQNYSNLLGIYGHIIQKDANIQAVALAAQSVELICDKLKTPGFSKDYVSLVFTPLLDRTKEKKPSVIEAIRKALLTICKYYDPLASSGRNEDMLKDILEHMKHKTPQIRMECTQLFNASMKEEKDGYSTLQRYLKDEVVPIVIQIVNDTQPAIRTIGFESFAILIKIFGMNTFVKTLEHLDNLKRKKIEETVKTDEPSSSKMLFEWEKRELEKKRSQEEEARKRKSILSNDEGEYQIDKDGDTLMGMETDMPPSKQQSGVQIDTFSMLPEETILDKLPKDFQERITSSKWKDRVEALEEFWDSVLSQTKKLKSTSQNYSNLLGIYGHIIQKDANIQAVALAAQSVELICDKLKTPGFSKDYVSLVFTPLLDRTKEKKPSVIEAIRKALLTICKYYDPLASSGRNEDMLKDILEHMKHKTPQIRMECTQLFNASMKEEKDGYSTLQRYLKDEVVPIVIQIVNDTQPAIATIGFESFAILIKIFGMNTFVKTLEHLDNLKRKKIEETVKTLPNFSIASGSTHSTIETNKQTGPMENKFLLKKSSVLPSKRVASSPLRNDNKSKVNPIGSVASASKPSMVAANNKSRVLLTSKSLATPKNVVANSTDKNEKLIEEYKYRLQKLQNDEMIWTKERQSLLEKMNNTENYKIEMIKENEMLREQLKEAQSKLNEKNIQLRSKEIDVNKLSDRVLSLENELRNMEIELDRNKKRNDTNLQSMGTISSYSIPSSTVSSNYGVKSLSSALPFKEEEDVRRKEDVNYERRSSESIGDLPHRVNSLNIRPYRKNGTGVSSVSDDLDIDFNDSFASEESYKRAAAVTSTLKARIEKMKAKSRREGTTRT
